Measurements: patent US11807881B2, “Polypeptide, fusion polypeptide, and antibiotic against gram-negative bacteria comprising same” (priority 2020, dated 2023)

Columns and labels:
Format in all cases: cell-based
[1] = tested on: Cronobacter sakazakii; assay: Spot test (halo zone); set-up: key: ‘◯’ means production of the halo zone; details: C. sakazakii KCTC 2949
From the text: (§1) In the present example, in order to investigate a target bacteria spectrum of the bacteriophage PBPA90 selected in the Examples 1.1 and 1.2 and endolysin LNT101 separated and purifying in the Example 1.3, the antibacterial activity against gram negative bacterium such as Pseudomonas aeruginosa ATCC13388, ATCC9027, ATCC10145, ATCC15692, ATCC15522, ATCC25619, ATCC27853, CCARM2134, CCARM2200, CCARM2029, CCARM2144, CCARM2298, CCARM2326, PR01957, E. coli ATCC8739, Enterobacter cloacae CCARM0252, Klebsiella pneumoniae KCTC2261, Klebsiella aerogenes CCARM16006, Campylobacter jejuni KCTC5327, Cronobacter sakazakii KCTC2949, Salmonella typhimurium ATCC14028, Salmonella enteritidis ATCC13076 was tested.
(§2) The target bacteria spectrum of the bacteriophage PBPA90 and endolysin LNT101 was confirmed by a spot test. For the spot test, bacterium sterilized in 4 ml top agar (1% Tryptone, 0.5% Yeast extract, 0.5% NaCl, 0.7% agar) of 1×10^11 CFU/200 μl were added and poured to a LB plate. After hardening the top agar, the bacteriophage PBPA90 10 μl (1×10^8 PFU/ml) or LNT101 10 μl (2 mg/ml) was spotted, and it was incubated at 37° C. for 18 hours.

[2] = tested on: E. coli; assay: Spot test (halo zone); set-up: key: ‘◯’ means production of the halo zone; details: E. coli ATCC 8739
From the text: as §1, §2

[3] = tested on: Pseudomonas aeruginosa; assay: Spot test (halo zone); set-up: key: ‘◯’ means production of the halo zone
From the text: as §1, §2

[4] = tested on: Acinetobacter baumannii; assay: CFU reduction test
Experimental: In addition, that the LNT101 endolysin had the antibacterial ability in various gram negative bacterium was confirmed by a CFU reduction test, and the result was shown in Table 2 below.
(§3) In order to confirm the killing ability against gram negative bacterium of the fusion polypeptide LNT103 prepared in Example 3.2, CFU reduction evaluation was performed for various gram negative bacterium. In order to perform the CFU reduction evaluation, 2 μM of each of LNT101, LNT102, and LNT103 prepared in Example 3, and 1×10^6 CFU of each of Pseudomonas aeruginosa (PA01; ATCC 15692), Acinetobacter baumannii (ATCC 17978), Escherichia coli (ATCC 8739), Klebsiella pneumoniae (ATCC 13883), and Enterobacter aerogenes (CCARM 16006) were added to reaction buffer (20 mM Tris-Cl, pH7.5) so that the final volume was 200 μl, and it was left at 37° C. for 2 hours. After that, the number of the colonies of each gram negative bacterium was confirmed to compare and evaluate the antibiotic effect of each polypeptide. As a control group, the PBS treatment group (treating PBS in the same volume as the fusion polypeptide) was used.

[5] = tested on: gram negative bacterium; assay: CFU reduction evaluation on various gram negative bacterium
Experimental: For this, Endolysin LNT101 and LNT102 at a concentration of 2 μM and each 1×10^6 CFU of Pseudomonas aeruginosa (PA01; ATCC 15692), Acinetobacter baumannii (ATCC 17978), Escherichia coli (ATCC 8739), Klebsiella pneumoniae (ATCC 13883), Enterobacter aerogenes (CCARM 16006), and Salmonella enteritidis (ATCC 13076) was added in reaction buffer (20 mM Tris-Cl, pH 7.5) so that the final volume was 200 μl, and it was left at 37° C. for 2 hours. In 2 hours, the number of colonies of each gram negative bacterium was confirmed, and the result was shown in FIG. 8 (in FIG. 8, PA90 represents endolysin LNT101 and mtPA90 represents endolysin LNT102, respectively).
The endolysin LNT102 at a concentration of 0.1, 0.5, 2.5 μM, and each 1×10^6 CFU of Pseudomonas aeruginosa, Acinetobacter baumannii, and Escherichia coli was added in reaction buffer (20 mM Tris-Cl, pH 7.5) so that the final volume was 200 μl, and it was left at 37° C. for 2 hours.
as §3
In addition, the same test was performed by using the fusion polypeptide LNT103, and CecA-LNT101 at a concentration of 2 μM, and the result was shown in FIG. 15. For comparison, the same test was performed for groups treated with LNT102 or PBS.
On the other hand, in order to compare the antibacterial activity in case that a protein other than endolysin (LNT102 or LNT101) was fused to Cecropin A, the killing ability against gram negative bacterium of the fusion polypeptide LNT103 and cecropin A-EGFP fusion protein (a protein in which EGFP (GenBank Accession No. AAB02572.1) having no endolysin activity by replacing LNT102 in LNT103) was evaluated. For this, the proteins were treated in an amount of 0.2 μM or 2 μM, respectively, to perform the CFU reduction test. […] In particular, it could be confirmed that the CFU Counting result for all the tested gram negative bacterium killed all bacterium treated with 0, when LNT103 2 μM was treated.
Furthermore, the killing ability against gram negative bacterium according to the concentration and/or treatment time of the fusion polypeptide LNT103 was tested. Specifically, the fusion polypeptide LNT103 at a concentration of 0.1, 0.3, 0.9, or 2.7 μM and 1×10^6 CFU of Pseudomonas aeruginosa (PA01; ATCC 15692) or Acinetobacter baumannii (ATCC 19606) were added to reaction buffer (20 mM Tris-Cl, pH7.5) so that the final volume was 200 μl, and it was left at 37° C. for 2 hours, and then the number of the colonies was confirmed, and the result was shown in A of FIG. 17.
In addition, the fusion polypeptide LNT103 at a concentration of 2 μM and 1×10^6 CFU of Pseudomonas aeruginosa (PA01; ATCC 15692) were added to reaction buffer (20 mM pH7.5) so that the final volume was 200 μl, and in 0, 20 minutes, 40 minutes and 60 minutes at 37° C., the number of the colonies was confirmed, and the result was shown in B of FIG. 17. […]

B1: LNT101: endolysin derived from bacteriophage PBPA90, amino acid sequence SEQ ID NO: 1 (259 aa), purified with 6× His tag (protein)
chain: MGTVLKRGDRGSAVEDLQMKLRVAGYAVSADGIFGGDTEKAVRDFQASKALVVDGKVGPATLAELAKSATVPAKWEAIPFPTANKSRSAAMPTLNAVGAMTGTDSRLLATFASIESAFDYTVKASTSSATGWFQFLDATWDDMIKAHGSKYGIPKDPTRALRKDPRANALMGAEFLKGNAAVLRPVINREPSDTDLYLAHFLGAGGAKKFLSADQKTLGEVLFPKPAKANPSIFSNKGVPRTLAEIYKLFEDKVSKHRA
modifications: 6xHis tag; synthetic_Endolysin LNT101
production of the halo zone [1]: ◯ | production of the halo zone [2]: ◯ | production of the halo zone ([3]; P. aeruginosa ATCC 9027): ◯ | production of the halo zone ([3]; P. aeruginosa ATCC 10145): ◯ | production of the halo zone ([3]; P. aeruginosa ATCC 13388, 10 μl (2 mg/ml), 37° C. 18 hours): ◯ | production of the halo zone ([3]; P. aeruginosa ATCC 15522): ◯ | production of the halo zone ([3]; P. aeruginosa ATCC 15692): ◯ | production of the halo zone ([3]; P. aeruginosa ATCC 25619): ◯ | production of the halo zone ([3]; P. aeruginosa ATCC 27853): ◯ | production of the halo zone ([3]; P. aeruginosa CCARM 2029): ◯ | production of the halo zone ([3]; P. aeruginosa CCARM 2134): ◯ | production of the halo zone ([3]; P. aeruginosa CCARM 2144): ◯ | production of the halo zone ([3]; P. aeruginosa CCARM 2200): ◯ | production of the halo zone ([3]; P. aeruginosa CCARM 2298): ◯ | production of the halo zone ([3]; P. aeruginosa CCARM 2326): ◯ | production of the halo zone ([3]; P. aeruginosa PR1957): ◯ | CFU reduction ([4]; A. baumannii ATCC 2508): ◯ (‘◯’ means reduction of 0.5 log CFU or more through the CFU reduction assay) | CFU reduction ([4]; A. baumannii F4): ◯ (‘◯’ means reduction of 0.5 log CFU or more through the CFU reduction assay) | CFU reduction ([4]; A. baumannii F15): ◯ (‘◯’ means reduction of 0.5 log CFU or more through the CFU reduction assay) | killing ability (number of colonies) ([5]; 2 μM, 2 hours, 37° C., P. aeruginosa PA01, A. baumannii ATCC 17978, E. coli ATCC 8739, K. pneumoniae ATCC 13883, E. aerogenes CCARM 16006, S. enteritidis ATCC 13076): excellent killing ability compared to the control group

B2: LNT103: fusion polypeptide [Cecropin A]-[linker (GSGSGS)]-[endolysin LNT102]; SEQ ID NO: 15 (MAS, His tag) used in the tests (protein)
chain: MASKWKLFKKIEKVGQNIRDGIIKAGPAVAVVGQATQIAKGSGSGSMGTVLKRGDRGSAVEDLQMKLNVAGYNLSADGIFGGDTEKAVRDVQAGAGLVVDGKVGPKTLYAIAKSATVPAKWEAIPFPTANKSRSAAMPTLNAVGAMTGVDSRLLATFASIESAFDYTVKAKTSSATGWFQFLDATWDDMIKAYGSKYGIPKDPTRALRKDPRANALMGAEFIKGNAAVLRPVINREPSDTDLYLAHFLGAGGAKKFLSADQKTLGEVLFPKPAKANPSIFSNKGVPRTLAEIYKLFEDKVSKHRALEHHHHHH
modifications: synthetic_Fusion Polypeptide LNT103 with MAS, His tag, and extra sequence
CFU Counting result ([4]; Acinetobacter baumannii (ATCC 19606, ATCC 17978), 2 μM, 2 hours): 0 log CFU/ml | antibacterial activity (CFU reduction test) ([5]; 0.2 μM or 2 μM (FIG. 16)): had excellent antibacterial activity | CFU reduction effect compared to LNT101 and LNT102 ([5]; 2 μM, 2 hours, 37° C., 1×10^6 CFU of each gram negative bacterium): 1.5˜5.5 log CFU/ml | counting result ([5]; 2 μM, all the tested bacterium (FIG. 15)): 0 log CFU/ml | CFU Counting result ([5]; LNT103 2 μM, all the tested gram negative bacterium (FIG. 16)): 0 | killing ability (number of colonies) ([5]; P. aeruginosa PA01 and A. baumannii ATCC 19606, 0.1-2.7 μM 2 hours, 2 μM 0-60 minutes, 1 μM 0-10 minutes): had the killing ability against gram negative bacterium in a concentration and time-dependent manner
